The nature of this data set: label from the status in PepcDB records.

From a protein production outcome set (Wang et al. 2014) come the findings set out here.

“MGEIRNYIKLILIGVAILVTVTMIISATGCDILPPPASAIKPPQYINASSGEVEDPKAIARRFLTPGTYFSYPTHPRNADAVWEVDIDGDGRAELLTLYRGRDLKNNGVEVFGVFILKQDENHEWQIFWEQQYTANIVALDWADVRDITGDNYPELLIGWNIGYRIGSNLDIYSLKEEDKPRLISSIKYSEIVGIEDRRGINNEIKPVLMMYLFDEEMYESENEGRKDEYFHILQWDYKEWMGGGLVEADDFYASYYVNVIEDLKESLERYSNNYYQWYILALAQLRSGKPMDALESVGKVLEITQRYINRHGERTVKEVFKYQKKARILKAAAYIKMGKYHESIIESNYVLGNYDIDDKELAQIYLNLGYAYAGLKQYEMAGTYFNKSCETAETVYKEGTALYLLNSYKAKKQLEYIKPFLTSSH”: the protein production entry is reported as “failed”.

Consider “MGEKPGTRVFKKSSPNCKLTVYLGKRDFVDHLDKVDPVDGVVLVDPDYLKDRKVFVTLTCAFRYGREDLDVLGLSFRKDLFIATYQAFPPVPNPPRPPTRLQDRLLRKLGQHAHPFFFTIPQNLPCSVTLQPGPEDTGKACGVDFEIRAFCAKSLEEKSHKRNSVRLVIRKVQFAPEKPGP”, for which the protein production entry was “failed”.

Turning to “MGEKVSIILTSYNKPDYLQKAIESVIQQTHDLWELFIMDDHSNAETTAVIHKYLHDRRIQYHNSFVHPADRLKTARYATLINSALPFADGDYISYLTDDTVYHPERLSRMVQEFSHKPEAQAVYSKQKVVHVNERGEEISHFYRNANAVLDQAAFQVDHCSVMHRRSLLNLIHHKFGGYWDDDMKHWNHGDAIFWARLNNFTPFLPINEVLDTTYKTPDSFQNAYRFLPADLIDGSFVKGSDQNVYFFDQGVRHPVGEKWGFLYLNRTVAVPDPYLFQYRIGKILNIPNYILVKEADHPAIFYIEAGKKRRIVDQYAFQFYQFQRKDIVTIGKEEMETLPEGPPITWKRSELIKNPPGRRLFFIEREPFLFLNGVFHPISEQVTRKFFLHQKPISASFRNIQQFPIGKPFYPVYDEIIKKLNIATELEHHHHHH”, the protein production result is “not failed”.

Consider “MGEMENIIYSIYHPTILVGFAIGILSLLAIGFQKNDLHALILTDVVECAMLIIIAGVGTDLAEALILPGLVVSLAELLAVSEVLITRKYLKSKRPKPKSYKLFEEFKLPLYTGELKYDIHMEILKTSPKFLAIILIVYGAILSGFTGGAVIATGLLFYALSQRVIGVEISEELKTMWEGISGLSGIAWALWIFGFIGFFVFPDKWLLCLLMAGLGLVIKVGSKLGLIGYIGEVR”, for which the protein production result was “failed”.

Regarding “MGEPFGGPLMGRLVSLLPSATDLIFELGLGEQLLGVSHCCDHPGAASLPVLTRSIIGSDLPQAEIDRAVSEAVRAGRALYTVDGPLLDRLRPDLVVTQGVCEVCAVTPGTVAEAVRFLPGCLPAEQVLSLEGKTFAGILADLRALARAAGVRERGEALAAESERRWNAIRPVGVQVPEPPRVLTLEWVDPPFYGGHWVPEQVAQAGGKDVLGHAGRDSGRTSWEDVVQLDPDVIVVMCCGYGLSDNAEFARQVLSHPELRAVRAGQVWGVDANAHFSRPSLGVVRGAEVLAALLRGEESAGESVRVRAELEHHHHHH”, the protein production result was “not failed”.

As for “MGFDFGTVLVFAVVAVGFALGGIAASRALGPKWPNPEKASIYECGERPVGVAWFNFNPRFYLVALVFLVFEVDIALTFPVVAVFKGWVAQGPGMAWVAFFELLVFTGILVVGLAWAWAHGDLEWIKTLGAPSEEAPARAEPRRAA”, the protein production entry is given as “failed”.

Consider “MGFFDSGIGGMTVLYEAIKVLPYEDYIFYADTLNVPYGEKSKGKVKEYIFNAAEFLASQNIKALVIACNTATSIAIEDLRRNFDFPIIGIEPAVKPAINKCTEERKRVLVVATNLTLKEEKFHNLVKEIDHHDLVDCLALPGLVEFAENFDFSEDKIIKYLKNELSSFDLKQYGTIVLGCTHFPFFKNSFEKLFGIKVDMISGSVGTAKQLKKVLADRNQLGKGSGSITFFNSGHKIVDQEVISKYKRLFEILDETQRSHVGH”, for which the protein production entry is reported as “failed”.

On to “MGFHLRGNNDFAFKRLYINLPQNSQMRAQLRRLIDNGSDTVVVSDKQDADAFLDVLSENRVKTISSLTPQGVVREYRITYRFSFQLRDAHDNLLIPPSEITLFRDLSYNETQVLAKDYEEAALYRDMQGDIVNQLVRRLASVRLPSLEHHHHHH”, for which the protein production entry is given as “not failed”.

On to “MGFLVPSEITVSEFLLDFLNKYSENISLATYNNYVSICKNYINPSIGKYKIQDLHPVHIQNYIDKLSYKLNPQSIKIHINILKLAIKRAYRLKLIKENVMDSIKAPLEHHHHHH”, for which the protein production result is “failed”.

As to “MGFNVKTPLLATDVIIRLWDGENFKGIVLIERKYPPVGLALPGGFVEVGERVEEAAAREMREETGLEVRLHKLMGVYSDPERDPRAHVVSVVWIGDAQGEPKAGSDAKKVKVYRLEEIPLDKLVFDHKKIILDFLKGNY”, the protein production entry is listed as “not failed”.

In the case of “MGFSFLLATVQKERMKRRSRTRSRSRRRAKQDPKTWVARYIPQDLLIEILTRLPPKSVMRFKCVSKFWSSLLSSRYFCNRFLIVPSQPQPSLYMCLLDRYNYSKSLILSSAPSTSPYSFVFDQDLTIRKMGGFFLRILRGFIFFTRNLKARIYNPTTRQLVILPTIKESDIIAGPPYNILYFICHDPVNDRYKLLCTVSYASDNDLQNLKSELWIFVLEAGGSWKRVANEFPHHVPSHLDLNMNGVLYFLAWTDPHTCMLVSFDVRSEEFNTMQVPRNAGDTLPRQEKGVVNRVW”, the protein production entry is listed as “failed”.

Consider “MGGASWADTAMGGKGRHPDKALTTVQVRALKVPGRYADGNGLYLVVEPSGSKRWLLRTIVQGRRRDIGLGGAGLVTLAEAREKALAYRKLARDGGDPLAERRKARATVPTFAEAAEQVHEEHKASWKNPKHAAQWITTLRTYANPHLGARRVDQIETPDVLRALSPIWLTKGETARRVRQRIGTVLDWAKAAGHRTGDNPVESVAKGLPKQGERDEHHAALPYAEVPAFVTRLQSSDHGEAARLAFEFLILTAARTSEVLRAEWREIDEAEALWTVPAARMKAGREHRVPLSKRSLEIVRRAKLLAGDSAFIFPGRSTGKPMSNMVFLMALRRMKLTVTAHGFRSSFRDWAAEATSLPREVAEMALAHTIENRVEAAYRRGDLLAKRREMMEQWSTFVASKPKGDKPHKSSA”, for which the protein production entry is “failed”.

“MGGDARRALFVPAPSPTLHRMLPDALRDTLEERLDATIESVASVRGGCIANACRLETDAAPFFLKHGPDEVARTFPGEAAGLEALGAADSPLVVPSVHDTAPATDDRPGFLVMEWVNPGREGRRFWDRFGEGLAALHRHTADAYGFGQDNFIGRLPQSNAWTDDWPTFFREQRLAPQVDMARERGRWRDGWGTALTTLYRRLPDILPRSPEPSVLHGDLWKGNYLVTAVGDPALVDPATYYGHREADLAMTELFGGYDDRFYDAYRSAWGLAPEYGTRRDVYNLYHLINHLNLFGGGYAAQVEDTLRPFK”: the protein production result is on record as “failed”.

For the sequence “MGGIARLYGDSALAHFSQAHVCVVGVGGVGSWAVEALARTGIGRLTLIDLDNVAESNVNRQLHALTGDFGKAKVTALRERITQINPQCEVFEIEDFVTEDNLPEYFGKGFDFVIDAIDQVRVKAAMAAYFVERKQPFVLSGGAGGQKNPALIQTADLSRVTHDPLLANLRYTLRKRYGFSRDTKANMRVPCVYSTENIVPPQSREACSADAAPQGLSCAGYGASMLVTASFGLYCAQAAVEHIADKKLEHHHHHH”, the protein production entry is “failed”.

For “MGGKRHQNSGKGGKGRAKDAASAPQPNAGKVTLEGRSFLYVGGRDCQVAHLRQIASSYGAELIHHDGGLREAVSRIDRVLPSVDCVFCPIDCISHDACLRVKTGCKKWGKAFVPLRNGSKSSLEHHHHHH”, the protein production result is “not failed”.

Regarding “MGGKTKKHAMRLFDRIAEKYDLLNRILSFGMDTKWRKRVVELILEVNPEKVLDLATGTGDVARLLKRKAPHLEITGLDSSSKMLEIAEKRLKDGEFIVGDAHNLPFYDRSFDAITVAFGFRNFSDRRRVLRECRRVLKRKGRLVILELLPPNTKRFTGKIYSFYLKTWVPFVGGLFSGDFHAYRYLSTSVLNFLTPDQIVEMMKEEGFEVSFEPLFFSVAGIFIGDLIWLEHHHHHH”, the protein production result was “failed”.

“MGGMRWLLLAKQPALGGAAALEGVMMKAPWAWALAVRLPDGRIHVERHEERALTERYPWTRLPLLRGVVALFDALSVSYRALARSAELAGGEEVPRGALWGTVA”: the protein production result is recorded as “failed”.

In the case of “MGGSFGKKGASSATAAQVPLATETTPGLMSPSEKLKLSTLTTSIATSDFYASYDFMMHSIGLTSANNISLLSTGNISLQNILSEGNHFGVQPIVSSTTANASFLAGMLMAIFPKESELEVTVYFKTPSAFNPAQLTVIGSTSIGLGISDRSGLIIENGNAFGGIVKASAATETGSTYALSTSTWYICKFKMLTDDRFKVTLYSDSGTQLYSYTSTAAMFRADNATAHIGFKTQCKTATAGISLISIDLIEFKAKVSATRAKV”, the protein production entry was “not failed”.

For the sequence “MGHERDWSLVQVALTDITARKKAEAYLEYLGKHDVLTKLHNRAFYSDELNRLERSALRPVSAIVIDLNGLKEANDKLGHDAGDALLRRVGEVLNGVVTAPNHAARIGGDEFAILLPGADKQVAAAMVDTVYELLKINNQFYSSAPLSLSLGVATTEAGETMESLVRRADMNMYEQKNAYYAALRNRSADNNDTTKGLEHHHHHH”, the protein production entry is “not failed”.

On to “MGHHHHHHSHGLCYDLCRFGAVVAEDGYYVDEKKCEGCAFCFNVCPERAIEMENVKTGDLYVSKTEWGYFVHARLKPGEENTGRLVTEVKNRAKEIAEESNAEFLIVDSAPGVGCPVMASLTGVDAAIIVTEPTVSGLSDMLRILELCEHFRIRPFVVVNKFDLNVNIASEIESYCSENGVEFAGRVPFDKAIPEQIANLNFPFSGKAADKMVEIWKKLRE”, for which the protein production result is given as “failed”.

In the case of “MGHHHHHHSHMGNIPEAIASYRTALKLKPDFPDAYCNLAHCLQIVCDWTDYDERMKKLVSIVADQLEKNRLPSVHPHHSMLYPLSHGFRKAIAERHGNLCLDKINVLHKPPYEHPKDLKLSDGRLRVGYVSSDFGNHPTSHLMQSIPGMHNPDK”, the protein production entry is listed as “failed”.

For “MGHHHHHHSHMIEHDPVKPRQLPKTIGCSKNFPGKTALATREQVQWWLLQLAQELEERLTKDRNDNDRVATQLVVSIRVQGDKRLSSLRRCCALTRYDAHKMSHDAFTVIKNCNTSGIQTEWSPPLTMLFLCATKFSASAP”, the protein production result is listed as “not failed”.

Turning to “MGHHHHHHSHMIRINEIKLPLDHEEGALLDAITKKLGIPAEKVISFNVFRRGYDARKKTNIHLIYTLDIIVEGDETALLAKFANDPHVRQTPDMEYKFVAKAPENLTERPIVIGFGPCGLFAGLVLAQMGFNPIIVERGKEVRERTKDTFGFWRKRTLNPESNVQFGEGGAGTFSDGKLYSQVKDPNFYGRKVITEFVEAGAPEEILYVSKPHIGTFKLVTMIEKMRATIIELGGEIRFSTRVDGLHMEDGQITGVTLSNGEEIKSRHVVLAVGHSARDTFEMLHERGVYMEAKPFSVGFRIEHKQSMIDEARFGPNAGHPILGAADYKLVHHCKNGRTVYSFCMCPGGTVVAATSEEGRVVTNGMSQYSRAERNANSAIVVGISPEVDYPGDPLAGIRFQRELESNAYKLGGENYDAPAQKIGDFLKGRDPSQLGDVEPSFTPGIKLTDLSKALPPFAVEAIREAIPAFDRKIKGFASEDGLLTGVETRTSSPVCIKRGKDFQSVNLKGFYPAGEGAGYAGGILSAGIDGIKVAEAVARDIVAAMENA”, the protein production result is “not failed”.

On to “MGHHHHHHSHMISWLTGEELHVEVLENVPLTTHNFVRKTFFTLAFCDFCRKLLFQGFRCQTCGYKFHQRCSTEVPLMCVNYDQLDLLFVSKFFEHHPIPQEEASLAETA”, for which the protein production entry is reported as “not failed”.

With “MGHHHHHHSHMLPPEQWSHTTVRNALKDLLKDMNQSSLAKECPLSQSMISSIVNSTYYANVSAAKCQEFGRWYKHFKKTKDMM”, the protein production entry was “not failed”.

Take “MGHHHHHHSHMNSCILQATVVEAPQLRYTQDNQTPVAEMVVQFPGLSSKDAPARLKVVGWGAVAQELQDRCRLNDEVVLEGRLRINSLLKPDGNREKQTELTVTRVHH”: the protein production result was “not failed”.
